The values below come from article PMC6804253, “Predicting and Experimentally Validating Hot-Spot Residues at Protein–Protein Interfaces” (ACS Chemical Biology, 2019).

The subject of assay [1] is PPIs of the SKEMPI data set (by PDBID). As to the kind of experiment: SKEMPI experimental ΔΔG, single mutations to alanine. In kind it is binding. The following applies: for sk_class: class of the SKEMPI experimental ΔΔG; for sk_class (class of the SKEMPI experimental ΔΔG): class by ΔΔG threshold 4.184 kJ/mol, ref SKEMPI.
The test system is the same in assay [2]. The following applies: single mutation to alanine, ref SKEMPI, cited from earlier work; for sk_ddG_kJ (SKEMPI experimental ΔΔG): complex given by PDBID; for sk_ddG_kJ (SKEMPI experimental ΔΔG, mutation to alanine): PPI given by PDBID, sheet sortedByGroup, r_group DERKH.

Where a chain is given by its changes, count along the chain named. Read-outs that look alike come from different tables or passages of the source.

B1: 1AHW TC167A (protein, UniProt P13726 33-251, looked up, variant T167A)
extracellular domain: SGTTNTVAAYNLTWKSTNFKTILEWEPKPVNQVYTVQISTKSGDWKSKCFYTTDTECDLTDEIVKDVKQTYLARVFSYPAGNVESTGSAGEPLYENSPEFTPYLETNLGQPTIQSFEQVGTKVNVTVEDERTLVRRNNTFLSLRDVFGKDLIYTLYYWKSSSSGKKAAKTNTNEFLIDVDKGENYCFSVQAVIPSRTVNRKSTDSPVECMGQEKGEFRE
modifications: extracellular domain
As to B1, the sk_class result in assay [1] is listed as “Neutral (neutral (little effect) 4.184 kJ/mol < ΔΔG > −4.184 kJ/mol)”. In assay [2] (residue group SQNT), the “sk_ddG_kJ (SKEMPI experimental ΔΔG)” value was -0.29 kJ.

B2: 1DAN ST42A (protein, UniProt P13726 33-251, looked up, variant S42A)
extracellular domain: B1 extracellular domain with S42A, A167T
modifications: extracellular domain
B2: the sk_class result in assay [1] is listed as “Neutral (neutral (little effect) 4.184 kJ/mol < ΔΔG > −4.184 kJ/mol)”. In addition, the “sk_ddG_kJ (SKEMPI experimental ΔΔG)” value in assay [2] (residue group SQNT) is reported as -0.29 kJ.

B3: 1AHW NC199A (protein, UniProt P13726 33-251, looked up, variant N199A)
extracellular domain: B1 extracellular domain with A167T, N199A
modifications: extracellular domain
For B3, the sk_class result in assay [1] is recorded as “Positive (positive (a hot residue) ΔΔG ≥ 4.184 kJ/mol)”. The “sk_ddG_kJ (SKEMPI experimental ΔΔG)” value in assay [2] (residue group SQNT) is 4.52 kJ.

B4: 1DAN NU107A (protein, UniProt P13726 33-251, looked up, variant N107A)
extracellular domain: B1 extracellular domain with N107A, A167T
modifications: extracellular domain
For the molecule B4, the sk_class result in assay [1] is recorded as “Neutral (neutral (little effect) 4.184 kJ/mol < ΔΔG > −4.184 kJ/mol)”. The “sk_ddG_kJ (SKEMPI experimental ΔΔG)” value in assay [2] (residue group SQNT) is 0.00 kJ.

B5: 1DAN TT52A (protein, UniProt P13726 33-251, looked up, variant T52A)
extracellular domain: B1 extracellular domain with T52A, A167T
modifications: extracellular domain
Turning to B5, the sk_class result in assay [1] is on record as “Neutral (neutral (little effect) 4.184 kJ/mol < ΔΔG > −4.184 kJ/mol)”. Moreover, the “sk_ddG_kJ (SKEMPI experimental ΔΔG)” value in assay [2] (residue group SQNT) is 1.67 kJ.

B6: 1DAN TT17A (protein, UniProt P13726 33-251, looked up, variant T17A)
extracellular domain: B1 extracellular domain with T17A, A167T
modifications: extracellular domain
For the molecule B6, the sk_class entry in assay [1] is “Neutral (neutral (little effect) 4.184 kJ/mol < ΔΔG > −4.184 kJ/mol)”. In assay [2] (residue group SQNT), the “sk_ddG_kJ (SKEMPI experimental ΔΔG)” value is 0.50 kJ.

B7: 1DAN NT18A (protein, UniProt P13726 33-251, looked up, variant N18A)
extracellular domain: B1 extracellular domain with N18A, A167T
modifications: extracellular domain
B7: the sk_class result in assay [1] is “Neutral (neutral (little effect) 4.184 kJ/mol < ΔΔG > −4.184 kJ/mol)”. For the same molecule, in assay [2] (residue group SQNT), the “sk_ddG_kJ (SKEMPI experimental ΔΔG)” value was 0.75 kJ.

B8: 1DAN ST16A (protein, UniProt P13726 33-251, looked up, variant S16A)
extracellular domain: B1 extracellular domain with S16A, A167T
modifications: extracellular domain
In the case of B8, in assay [1], the sk_class entry is “Neutral (neutral (little effect) 4.184 kJ/mol < ΔΔG > −4.184 kJ/mol)”. Moreover, the “sk_ddG_kJ (SKEMPI experimental ΔΔG)” value in assay [2] (residue group SQNT) was -0.54 kJ.

B9: 1DAN TT21A (protein, UniProt P13726 33-251, looked up, variant T21A)
extracellular domain: B1 extracellular domain with T21A, A167T
modifications: extracellular domain
Consider B9, for which, in assay [1], the sk_class result was “Neutral (neutral (little effect) 4.184 kJ/mol < ΔΔG > −4.184 kJ/mol)”. Further, the “sk_ddG_kJ (SKEMPI experimental ΔΔG)” value in assay [2] (residue group SQNT) is -0.67 kJ.

B10: 1DAN QU110A (protein, UniProt P13726 33-251, looked up, variant Q110A)
extracellular domain: B1 extracellular domain with Q110A, A167T
modifications: extracellular domain
On to B10, for which, in assay [1], the sk_class entry is given as “Positive (positive (a hot residue) ΔΔG ≥ 4.184 kJ/mol)”. Further, the “sk_ddG_kJ (SKEMPI experimental ΔΔG)” value in assay [2] (residue group SQNT) is given as 5.44 kJ.

B11: 1AHW TC197A (protein, UniProt P13726 33-295, looked up, variant T197A)
Tissue factor: SGTTNTVAAYNLTWKSTNFKTILEWEPKPVNQVYTVQISTKSGDWKSKCFYTTDTECDLTDEIVKDVKQTYLARVFSYPAGNVESTGSAGEPLYENSPEFTPYLETNLGQPTIQSFEQVGTKVNVTVEDERTLVRRNNTFLSLRDVFGKDLIYTLYYWKSSSSGKKTAKTNTNEFLIDVDKGENYCFSVQAVIPSRAVNRKSTDSPVECMGQEKGEFREIFYIIGAVVFVVIILVIILAISLHKCRKAGVGQSWKENSPLNVS
In the case of B11, the sk_class result in assay [1] is “Positive (positive (a hot residue) ΔΔG ≥ 4.184 kJ/mol)”. The “sk_ddG_kJ (SKEMPI experimental ΔΔG)” value in assay [2] (residue group SQNT) was 5.65 kJ.

B12: 1DAN TT60A (protein, UniProt P13726 33-295, looked up, variant T60A)
Tissue factor: B11 Tissue factor with T60A, A197T
For the molecule B12, in assay [1], the sk_class result was “Positive (positive (a hot residue) ΔΔG ≥ 4.184 kJ/mol)”. Besides, in assay [2] (residue group SQNT), the “sk_ddG_kJ (SKEMPI experimental ΔΔG)” value was 9.67 kJ.

B13: 1DAN ST47A (protein, UniProt P13726 33-295, looked up, variant S47A)
Tissue factor: B11 Tissue factor with S47A, A197T
Take B13: the sk_class entry in assay [1] is “Neutral (neutral (little effect) 4.184 kJ/mol < ΔΔG > −4.184 kJ/mol)”. Moreover, in assay [2] (residue group SQNT), the “sk_ddG_kJ (SKEMPI experimental ΔΔG)” value is on record as -0.54 kJ.

B14: 1A4Y EA344A (protein, UniProt P13489 2-461, looked up, variant E344A)
Ribonuclease inhibitor: SLDIQSLDIQCEELSDARWAELLPLLQQCQVVRLDDCGLTEARCKDISSALRVNPALAELNLRSNELGDVGVHCVLQGLQTPSCKIQKLSLQNCCLTGAGCGVLSSTLRTLPTLQELHLSDNLLGDAGLQLLCEGLLDPQCRLEKLQLEYCSLSAASCEPLASVLRAKPDFKELTVSNNDINEAGVRVLCQGLKDSPCQLEALKLESCGVTSDNCRDLCGIVASKASLRELALGSNKLGDVGMAELCPGLLHPSSRLRTLWIWECGITAKGCGDLCRVLRAKESLKELSLAGNELGDEGARLLCETLLEPGCQLESLWVKSCSFTAACCSHFSSVLAQNRFLLALQISNNRLEDAGVRELCQGLGQPGSVLRVLWLADCDVSDSSCSSLAATLLANHSLRELDLSNNCLGDAGILQLVESVRQPGCLLEQLVLYDIYWSEEMEDRLQALEKDKPSLRVIS
Turning to B14, the “sk_class (class of the SKEMPI experimental ΔΔG)” value in assay [1] is listed as “Neutral (neutral (little effect) 4.184 kJ/mol < ΔΔG > −4.184 kJ/mol)”. Also, in assay [2], the “sk_ddG_kJ (SKEMPI experimental ΔΔG, mutation to alanine)” value was 0.67 kJ.

B15: 1A4Y EA401A (protein, UniProt P13489 2-461, looked up, variant E401A)
Ribonuclease inhibitor: B14 Ribonuclease inhibitor with A344E, E401A
In the case of B15, the “sk_class (class of the SKEMPI experimental ΔΔG)” value in assay [1] is “Neutral (neutral (little effect) 4.184 kJ/mol < ΔΔG > −4.184 kJ/mol)”. Also, the “sk_ddG_kJ (SKEMPI experimental ΔΔG, mutation to alanine)” value in assay [2] is 3.60 kJ.

B16: 1A4Y DA435A (protein, UniProt P13489 2-461, looked up, variant D435A)
Ribonuclease inhibitor: B14 Ribonuclease inhibitor with A344E, D435A
As to B16, the “sk_class (class of the SKEMPI experimental ΔΔG)” value in assay [1] was “Positive (positive (a hot residue) ΔΔG ≥ 4.184 kJ/mol)”. Also, the “sk_ddG_kJ (SKEMPI experimental ΔΔG, mutation to alanine)” value in assay [2] is given as 14.56 kJ.

B17: 1A4Y SA289A (protein, UniProt P13489 2-461, looked up, variant S289A)
Ribonuclease inhibitor: B14 Ribonuclease inhibitor with S289A, A344E
Take B17: the sk_class result in assay [1] is “Neutral (neutral (little effect) 4.184 kJ/mol < ΔΔG > −4.184 kJ/mol)”. The “sk_ddG_kJ (SKEMPI experimental ΔΔG)” value in assay [2] (mutation by mut_pdb) is 0.13 kJ.
